Ends that are not written are not given here. * marks the point of attachment. Biotin = O=C1N[C@H]2[C@H](CS[C@H]2CCCCC(=O)*)N1
Biological target: T1, GST-WSB2 WDR (human)
T1 sequence (Q9NYS7 whole entry, looked up): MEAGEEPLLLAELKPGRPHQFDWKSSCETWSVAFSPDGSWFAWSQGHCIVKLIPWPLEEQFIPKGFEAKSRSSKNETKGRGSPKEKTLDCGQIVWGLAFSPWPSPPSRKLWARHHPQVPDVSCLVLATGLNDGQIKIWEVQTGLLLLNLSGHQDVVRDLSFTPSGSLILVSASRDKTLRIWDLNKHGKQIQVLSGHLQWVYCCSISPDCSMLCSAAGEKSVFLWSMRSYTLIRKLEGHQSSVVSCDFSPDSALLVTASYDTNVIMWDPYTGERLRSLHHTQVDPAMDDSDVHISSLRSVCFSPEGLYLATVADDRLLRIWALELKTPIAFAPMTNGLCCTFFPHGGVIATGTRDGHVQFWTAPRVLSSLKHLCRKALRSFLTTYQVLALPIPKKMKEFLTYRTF
Assay: pull-down + far-Western, overlay or dot blot; about 3 ug glutathione beads-bound GST-WSB2 WDR with 1.8 nmol biotin-labeled RelA peptide in 500 ul GST binding buffer, 4°C, 1 h; washed, eluted with 20 mM GSH, denatured, spotted on nitrocellulose; anti-biotin and anti-GST

fold affinity against the unmethylated peptide: 3 to 4 fold
Binder: Biotin-TFKSIMK(Me)K(Me)SPFSG [biotin-labeled K314/315 monomethylated RelA peptide (a.a. 308-320)]

Source: paper PMC11109945
